Here are results for 125 sequences from the supplement of paper PMC9112550, “Optimization of the antimicrobial peptide Bac7 by deep mutational scanning” (BMC Biology, 2022).

The data set has as its system Escherichia coli TOP10. Description: shrunken log2 fold change of peptide-encoding DNA abundance (4.5 h post-induction vs induction); higher = less antimicrobial activity (less host growth inhibition). The conditions noted are these: time post-induction: 4.5 h; library: site-saturation at positions 5, 18, 19, 20.
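Further: peptides expressed intracellularly from a pBAD plasmid library in pooled LB shake-flask culture, induced with 0.3% L-arabinose, DNA abundance read by NGS, three biological replicates, DESeq2 with apeglm shrinkage.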

As for RRIRFRPPRLPRPRPRPQFFPRP, the “shrunken log2 fold change” value is -0.193.
Turning to RRIRDRPPRLPRPRPRPNTKPRP, the “shrunken log2 fold change” value is -0.124.
Then RRIRFRPPRLPRPRPRPPPRPRP, with 1.84.
Consider RRIRLRPPRLPRPRPRPLDAPRP, for which the “shrunken log2 fold change” value turned out to be 0.112.
The result for RRIRYRPPRLPRPRPRPGHLPRP reads -0.0798; that for RRIRPRPPRLPRPRPRPCYYPRP, -0.436; that for RRIRKRPPRLPRPRPRPISCPRP, 0.0993.
The result for RRIRWRPPRLPRPRPRPYSWPRP reads -0.128.
The result for RRIRKRPPRLPRPRPRPCMKPRP reads -0.0153.
With RRIRWRPPRLPRPRPRPEVCPRP, the “shrunken log2 fold change” value is 0.000572.
The result for RRIRKRPPRLPRPRPRPLNGPRP reads 0.0417; that for RRIRERPPRLPRPRPRPWFWPRP, 0.061.
The result for RRIRKRPPRLPRPRPRPNEFPRP reads -0.042.
Then RRIRKRPPRLPRPRPRPRRTPRP, with 0.443; and RRIRMRPPRLPRPRPRPAFIPRP, with -0.398; and RRIRCRPPRLPRPRPRPTNAPRP, with 0.307.
For RRIRRRPPRLPRPRPRPNAGPRP, the “shrunken log2 fold change” value was determined as 0.0188.
For the sequence RRIRVRPPRLPRPRPRPIQRPRP, the “shrunken log2 fold change” value is -0.0384.
For the sequence RRIRIRPPRLPRPRPRPTEVPRP, the “shrunken log2 fold change” value was found to be 0.232.
The result for RRIRMRPPRLPRPRPRPLCTPRP reads 1.19; that for RRIRLRPPRLPRPRPRPFYEPRP, -0.426; that for RRIRMRPPRLPRPRPRPKNEPRP, 0.881.
The result for RRIRGRPPRLPRPRPRPFSKPRP reads 0.164; that for RRIRWRPPRLPRPRPRPMTPPRP, 0.764.
The result for RRIRHRPPRLPRPRPRPMAFPRP reads 0.166; that for RRIRHRPPRLPRPRPRPDPWPRP, 0.0282; that for RRIRERPPRLPRPRPRPVFFPRP, 0.0585.
Turning to RRIRKRPPRLPRPRPRPEQGPRP, the “shrunken log2 fold change” value was 0.199.
The result for RRIRRRPPRLPRPRPRPDTDPRP reads -0.108; that for RRIRERPPRLPRPRPRPRNRPRP, -0.134; that for RRIRYRPPRLPRPRPRPELHPRP, -0.143.
Consider RRIRERPPRLPRPRPRPHIRPRP, for which the “shrunken log2 fold change” value was -0.126.
With RRIRERPPRLPRPRPRPCAKPRP, the “shrunken log2 fold change” value worked out at 0.00616.
Consider RRIRMRPPRLPRPRPRPGAHPRP, for which the “shrunken log2 fold change” value was found to be 0.473.
Consider RRIRWRPPRLPRPRPRPWIEPRP, for which the “shrunken log2 fold change” value came to 0.0929.
The result for RRIRHRPPRLPRPRPRPLIKPRP reads -0.721; that for RRIRCRPPRLPRPRPRPDLTPRP, -0.275.
RRIRCRPPRLPRPRPRPQWYPRP: the “shrunken log2 fold change” value was -0.321.
The result for RRIRDRPPRLPRPRPRPMFTPRP reads -0.174; that for RRIRHRPPRLPRPRPRPCSLPRP, -0.115; that for RRIRDRPPRLPRPRPRPLLQPRP, 0.287.
With RRIRIRPPRLPRPRPRPKEMPRP, the “shrunken log2 fold change” value is -0.297.
For the sequence RRIRVRPPRLPRPRPRPSHCPRP, the “shrunken log2 fold change” value amounted to 0.109.
The result for RRIRNRPPRLPRPRPRPADHPRP reads -0.0958; that for RRIRERPPRLPRPRPRPFCHPRP, -0.0629; that for RRIRYRPPRLPRPRPRPNFHPRP, -0.612.
The result for RRIRRRPPRLPRPRPRPEDAPRP reads 0.582; that for RRIRGRPPRLPRPRPRPMFDPRP, 0.662.
The result for RRIRMRPPRLPRPRPRPHECPRP reads 0.0178; that for RRIRARPPRLPRPRPRPSPEPRP, 0.41; that for RRIRYRPPRLPRPRPRPFGTPRP, -0.158.
On to RRIRMRPPRLPRPRPRPCGWPRP, for which the “shrunken log2 fold change” value was determined as 1.03.
With RRIRSRPPRLPRPRPRPTATPRP, the “shrunken log2 fold change” value turned out to be 0.703.
With RRIRFRPPRLPRPRPRPNWKPRP, the “shrunken log2 fold change” value was found to be 0.0201.
The result for RRIRSRPPRLPRPRPRPAIDPRP reads -0.0382; that for RRIRFRPPRLPRPRPRPLCQPRP, -0.12.
Then RRIRPRPPRLPRPRPRPVHIPRP, with -0.208; and RRIRLRPPRLPRPRPRPMKCPRP, with 0.131.
Then RRIRWRPPRLPRPRPRPSKAPRP, with -0.287.
On to RRIRLRPPRLPRPRPRPKVKPRP, for which the “shrunken log2 fold change” value is -0.0219.
For the sequence RRIRSRPPRLPRPRPRPNGRPRP, the “shrunken log2 fold change” value is -0.0415.
Then RRIRARPPRLPRPRPRPCHIPRP, with 0.00153; and RRIRGRPPRLPRPRPRPEFSPRP, with 1.15; and RRIRIRPPRLPRPRPRPWCNPRP, with -0.33.
Then RRIRYRPPRLPRPRPRPRCEPRP, with 0.076; and RRIRERPPRLPRPRPRPSRMPRP, with -0.0294.
Take RRIRHRPPRLPRPRPRPINTPRP: the “shrunken log2 fold change” value is -0.249.
The result for RRIRYRPPRLPRPRPRPWAAPRP reads -0.0914.
Then RRIRARPPRLPRPRPRPEDLPRP, with 0.0217.
The result for RRIRMRPPRLPRPRPRPGRPPRP reads 0.383.
In the case of RRIRPRPPRLPRPRPRPVYLPRP, the “shrunken log2 fold change” value was -0.6.
Turning to RRIRIRPPRLPRPRPRPQRDPRP, the “shrunken log2 fold change” value was found to be 0.0634.
As for RRIRIRPPRLPRPRPRPMSIPRP, the “shrunken log2 fold change” value is -0.0563.
The result for RRIRWRPPRLPRPRPRPNIWPRP reads -0.153; that for RRIRKRPPRLPRPRPRPTYMPRP, -0.121.
For RRIRIRPPRLPRPRPRPQRVPRP, the “shrunken log2 fold change” value is -0.406.
Turning to RRIRSRPPRLPRPRPRPRWQPRP, the “shrunken log2 fold change” value is 0.166.
Then RRIRCRPPRLPRPRPRPTQYPRP, with -0.0607.
Then RRIRDRPPRLPRPRPRPWWCPRP, with -0.00632; and RRIRDRPPRLPRPRPRPMHWPRP, with 0.591.
For the sequence RRIRSRPPRLPRPRPRPKTPPRP, the “shrunken log2 fold change” value came to 0.405.
With RRIRDRPPRLPRPRPRPDRWPRP, the “shrunken log2 fold change” value was 0.366.
In the case of RRIRCRPPRLPRPRPRPHEPPRP, the “shrunken log2 fold change” value was -0.00114.
The result for RRIRMRPPRLPRPRPRPKAFPRP reads 0.0392; that for RRIRTRPPRLPRPRPRPFWNPRP, -0.104.
The result for RRIRARPPRLPRPRPRPLMTPRP reads 0.474; that for RRIRTRPPRLPRPRPRPQMIPRP, -0.346.
RRIRKRPPRLPRPRPRPYGVPRP: the “shrunken log2 fold change” value amounted to 0.0715.
The result for RRIRWRPPRLPRPRPRPGGPPRP reads 0.367; that for RRIRARPPRLPRPRPRPRKTPRP, 0.29; that for RRIRWRPPRLPRPRPRPPSYPRP, -0.116.
Then RRIRYRPPRLPRPRPRPTKHPRP, with -0.896; and RRIRIRPPRLPRPRPRPTGLPRP, with 0.375.
The result for RRIRERPPRLPRPRPRPGGYPRP reads -0.563.
In the case of RRIRGRPPRLPRPRPRPHDTPRP, the “shrunken log2 fold change” value came to 0.358.
Then RRIRLRPPRLPRPRPRPTCAPRP, with 0.314; and RRIRDRPPRLPRPRPRPVWKPRP, with -0.0168; and RRIRMRPPRLPRPRPRPIVRPRP, with -0.0408.
For the sequence RRIRERPPRLPRPRPRPWDNPRP, the “shrunken log2 fold change” value is -0.021.
The result for RRIRVRPPRLPRPRPRPHVCPRP reads -0.0775; that for RRIRGRPPRLPRPRPRPPASPRP, 1.07; that for RRIRYRPPRLPRPRPRPKIRPRP, 0.0107.
The result for RRIRIRPPRLPRPRPRPCITPRP reads -0.0326.
The result for RRIRARPPRLPRPRPRPDINPRP reads 0.0789; that for RRIRMRPPRLPRPRPRPHYEPRP, -0.0284.
Consider RRIRNRPPRLPRPRPRPKWQPRP, for which the “shrunken log2 fold change” value was 0.182.
RRIRVRPPRLPRPRPRPMAEPRP: the “shrunken log2 fold change” value is 2.52.
Regarding RRIRFRPPRLPRPRPRPDQTPRP, the “shrunken log2 fold change” value came out at 0.0441.
Consider RRIRTRPPRLPRPRPRPFFLPRP, for which the “shrunken log2 fold change” value was -0.299.
For the sequence RRIRERPPRLPRPRPRPQDIPRP, the “shrunken log2 fold change” value was -0.135.
With RRIRNRPPRLPRPRPRPYPWPRP, the “shrunken log2 fold change” value is -0.0963.
Regarding RRIRPRPPRLPRPRPRPDMYPRP, the “shrunken log2 fold change” value is -0.192.
Then RRIRMRPPRLPRPRPRPKRKPRP, with 2.32.
In the case of RRIRTRPPRLPRPRPRPSGTPRP, the “shrunken log2 fold change” value is -0.0272.
As for RRIRCRPPRLPRPRPRPHFMPRP, the “shrunken log2 fold change” value is -0.774.
Consider RRIRNRPPRLPRPRPRPFDFPRP, for which the “shrunken log2 fold change” value was -0.161.
Then RRIRNRPPRLPRPRPRPMFVPRP, with 0.134; and RRIRLRPPRLPRPRPRPEYCPRP, with 0.0552; and RRIRCRPPRLPRPRPRPYDLPRP, with -0.325.
Regarding RRIRSRPPRLPRPRPRPHPAPRP, the “shrunken log2 fold change” value is -0.177.
RRIRVRPPRLPRPRPRPEEAPRP: the “shrunken log2 fold change” value was found to be 0.26.
Then RRIRKRPPRLPRPRPRPEKWPRP, with 0.422.
Then RRIRYRPPRLPRPRPRPWIWPRP, with -0.000921.
Then RRIRSRPPRLPRPRPRPYQFPRP, with 0.0245; and RRIRMRPPRLPRPRPRPGLMPRP, with 0.518.
